Reference: PMC8063757, “The DNA-binding protein HU is a molecular glue that attaches bacteria to extracellular DNA in biofilms” (The Journal of Biological Chemistry, 2020)
Values joined by “and” are separate entries in the source; they are usually repeats but may differ in a detail not shown here. Identical values can stand only once.

Assays:
[1] = target: the molecule itself; test: SEC; Superdex-75 10/300GL on an AKTA Purifier-10; elution at ~12 ml, corresponding to ~25 kDa
[2] = target: the molecule itself; test: cross-linking; glutaraldehyde added to HU-B or its variant alone (no f-LPS); 15% SDS-PAGE, Coomassie Blue G-250 staining
LoodHU-B K86A = target: T1, LoodHU-B K86A (Escherichia coli K-12, UniProt P0ACF4 1-51+=SGGGGSGGGGS+75-90, K86A;internal_change); test: EMSA; EMSA on 0.7% or 1% agarose gels, EtBr stain; binding buffer, salt, pH and temperature not stated; details: protein: recombinant; chain copies: 2; label: none (EtBr stain); four-way junction of 4 strands, equimolar, one copy each; strands as printed are not perfectly complementary
T1 sequence: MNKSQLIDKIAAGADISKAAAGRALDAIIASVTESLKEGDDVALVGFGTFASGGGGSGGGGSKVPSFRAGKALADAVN

LoodHU-B K83A = target: T2, LoodHU-B K83A (Escherichia coli K-12, UniProt P0ACF4 1-51+=SGGGGSGGGGS+75-90, K83A;internal_change); test: as above; details: protein: recombinant; chain copies: 2; label: none (EtBr stain); four-way junction of 4 strands, equimolar, one copy each; strands as printed are not perfectly complementary
T2 sequence: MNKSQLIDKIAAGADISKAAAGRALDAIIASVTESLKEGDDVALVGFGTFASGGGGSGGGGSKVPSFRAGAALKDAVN

HU-B K86A = target: T3, HU-B K86A (Escherichia coli K-12, UniProt P0ACF4 1-90, K86A); test: as above; details: protein: recombinant; chain copies: 2; label: none (EtBr stain); four-way junction of 4 strands, equimolar, one copy each; strands as printed are not perfectly complementary
T3 sequence: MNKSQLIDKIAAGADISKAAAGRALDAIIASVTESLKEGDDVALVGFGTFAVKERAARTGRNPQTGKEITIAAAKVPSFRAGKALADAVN

HU-B = target: T4, HU-B (Escherichia coli K-12, UniProt P0ACF4 1-90); test: as above; details: protein: recombinant; chain copies: 2; label: none (EtBr stain); four-way junction of 4 strands, equimolar, one copy each; strands as printed are not perfectly complementary
T4 sequence: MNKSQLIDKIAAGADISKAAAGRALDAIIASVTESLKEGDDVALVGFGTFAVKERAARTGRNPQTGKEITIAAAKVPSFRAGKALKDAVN

LysrHU-A = LysrHU-A (Escherichia coli K-12, UniProt P0ACF0 1-90, K83A;K86A); test: as above; details: protein: recombinant; chain copies: 2; label: none (EtBr stain); four-way junction of 4 strands, equimolar, one copy each; strands as printed are not perfectly complementary
HU-A K86A = HU-A K86A (Escherichia coli K-12, UniProt P0ACF0 1-90, K86A); test: as above; details: protein: recombinant; chain copies: 2; label: none (EtBr stain); four-way junction of 4 strands, equimolar, one copy each; strands as printed are not perfectly complementary
HU-A K83A = HU-A K83A (Escherichia coli K-12, UniProt P0ACF0 1-90, K83A); test: as above; details: protein: recombinant; chain copies: 2; label: none (EtBr stain); four-way junction of 4 strands, equimolar, one copy each; strands as printed are not perfectly complementary
LoodLysrHU-B = target: T5, LoodLysrHU-B (Escherichia coli K-12, UniProt P0ACF4 1-51+=SGGGGSGGGGS+75-90, K83A;K86A;internal_change); test: as above; details: protein: recombinant; chain copies: 2; label: none (EtBr stain); four-way junction of 4 strands, equimolar, one copy each; strands as printed are not perfectly complementary
T5 sequence: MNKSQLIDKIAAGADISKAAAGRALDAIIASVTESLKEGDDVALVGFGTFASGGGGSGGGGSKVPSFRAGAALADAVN

LysrHU-B = target: T6, LysrHU-B (Escherichia coli K-12, UniProt P0ACF4 1-90, K83A;K86A); test: as above; details: protein: recombinant; chain copies: 2; label: none (EtBr stain); four-way junction of 4 strands, equimolar, one copy each; strands as printed are not perfectly complementary
T6 sequence: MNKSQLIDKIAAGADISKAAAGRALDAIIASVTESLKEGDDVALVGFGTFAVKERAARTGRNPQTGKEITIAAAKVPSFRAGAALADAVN

F47W HU-B = target: T7, F47W HU-B (Escherichia coli K-12, UniProt P0ACF4 1-90, F47W); test: as above; details: protein: recombinant; chain copies: 2; label: none (EtBr stain); four-way junction of 4 strands, equimolar, one copy each; strands as printed are not perfectly complementary
T7 sequence: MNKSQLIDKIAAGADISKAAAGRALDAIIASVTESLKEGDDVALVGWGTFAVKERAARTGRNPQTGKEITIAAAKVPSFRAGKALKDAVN

HU-B K83A = target: T8, HU-B K83A (Escherichia coli K-12, UniProt P0ACF4 1-90, K83A); test: as above; details: protein: recombinant; chain copies: 2; label: none (EtBr stain); four-way junction of 4 strands, equimolar, one copy each; strands as printed are not perfectly complementary
T8 sequence: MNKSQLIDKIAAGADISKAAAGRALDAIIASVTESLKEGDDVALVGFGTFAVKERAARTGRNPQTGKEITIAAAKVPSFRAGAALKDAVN

LoodHU-A K83A = LoodHU-A K83A (Escherichia coli K-12, UniProt P0ACF0 1-51+=SGGGGSGGGGS+75-90, K83A;internal_change); test: as above; details: protein: recombinant; chain copies: 2; label: none (EtBr stain); four-way junction of 4 strands, equimolar, one copy each; strands as printed are not perfectly complementary
F79W HU-B = target: T9, F79W HU-B (Escherichia coli K-12, UniProt P0ACF4 1-90, F79W); test: as above; details: protein: recombinant; chain copies: 2; label: none (EtBr stain); four-way junction of 4 strands, equimolar, one copy each; strands as printed are not perfectly complementary
T9 sequence: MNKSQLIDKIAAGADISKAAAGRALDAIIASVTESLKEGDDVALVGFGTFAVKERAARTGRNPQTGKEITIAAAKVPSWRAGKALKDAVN

LoodHU-A K86A = LoodHU-A K86A (Escherichia coli K-12, UniProt P0ACF0 1-51+=SGGGGSGGGGS+75-90, K86A;internal_change); test: as above; details: protein: recombinant; chain copies: 2; label: none (EtBr stain); four-way junction of 4 strands, equimolar, one copy each; strands as printed are not perfectly complementary
LoodLysrHU-A = LoodLysrHU-A (Escherichia coli K-12, UniProt P0ACF0 1-51+=SGGGGSGGGGS+75-90, K83A;K86A;internal_change); test: as above; details: protein: recombinant; chain copies: 2; label: none (EtBr stain); four-way junction of 4 strands, equimolar, one copy each; strands as printed are not perfectly complementary
LoodHU-B = target: T10, LoodHU-B (Escherichia coli K-12, UniProt P0ACF4 1-51+=SGGGGSGGGGS+75-90, internal_change); test: as above; details: protein: recombinant; chain copies: 2; label: none (EtBr stain); four-way junction of 4 strands, equimolar, one copy each; strands as printed are not perfectly complementary
T10 sequence: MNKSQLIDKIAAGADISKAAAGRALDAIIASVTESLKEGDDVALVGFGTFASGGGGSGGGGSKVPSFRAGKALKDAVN

B1: LoodLysrHU-B (loop-deleted and lysine-replaced HU-B) (natural protein, E. coli K-12)
chain: MNKSQLIDKIAAGADISKAAAGRALDAIIASVTESLKEGDDVALVGFGTFASGGGGSGGGGSKVPSFRAGAALADAVN
notes: HU-B of E. coli K-12, the stretch before the deleted loop (residues 52 to 74 deleted); 11-residue glycine/serine-rich linker that replaces residues 52 to 74; HU-B of E. coli K-12, the stretch after the deleted loop, with K83A and K86A (numbers count on unchanged HU-B); Combines the LoodHU-B and LysrHU-B changes; source: E. coli XL-1 Blue (pQE-30), purified (Ni-NTA, 2 M NaCl wash)
With B1 the “stoichiometry N” value [1] was 2 and the “stoichiometry N” value [2] was 4.

B2: LoodHU-B (loop-deleted HU-B) (natural protein, E. coli K-12)
chain: MNKSQLIDKIAAGADISKAAAGRALDAIIASVTESLKEGDDVALVGFGTFASGGGGSGGGGSKVPSFRAGKALKDAVN
notes: HU-B of E. coli K-12, the stretch before the deleted loop (residues 52 to 74 deleted); 11-residue glycine/serine-rich linker that replaces residues 52 to 74; HU-B of E. coli K-12, the stretch after the deleted loop (residues 52 to 74 deleted); The results call the loop 22 residues long, but residues 52 to 74 are 23 residues; source: E. coli XL-1 Blue (pQE-30), purified (Ni-NTA, 2 M NaCl wash)
B2 was tested, and the “stoichiometry N” value [1] was 2 and the “stoichiometry N” value [2] was 4.

B3: 4WJ DNA (structured_DNA)
DNA 1: CCCTATAACCCCTGCATTGAATTCCTGTCTGATAA
DNA 2: GTAGTCGTGATAGGTGCAGGGGTTATAGGG
DNA 3: AACAGTAGCTCTTAATTCGAGCTCGCGCCCTATCACGACTA
DNA 4: TTTATCAGACTGGAATTCAAGCGCGAGCTCGAATAAGAGCTACTGT
B3: no binding (LoodHU-B K86A); no binding (LoodHU-B K83A); binds (HU-B K86A). B3: binds (HU-B); binds (LysrHU-A); binds (HU-A K86A). B3: binds (HU-A K83A); no binding (LoodLysrHU-B); binds (LysrHU-B). B3: binds (F47W HU-B); binds (HU-B K83A); no binding (LoodHU-A K83A). B3: binds (F79W HU-B); no binding (LoodHU-A K86A); no binding (LoodLysrHU-A). B3: binds (LoodHU-B).

B4: HU-B WT (6xHis-tagged) (natural protein, E. coli K-12)
chain: MNKSQLIDKIAAGADISKAAAGRALDAIIASVTESLKEGDDVALVGFGTFAVKERAARTGRNPQTGKEITIAAAKVPSFRAGKALKDAVN
notes: HU-B, isoform of the nucleoid-associated histone-like protein HU of E. coli; gene PCR-amplified from E. coli K-12 genomic DNA; ~90 amino acids, ~9.2-kDa polypeptide; Cloned between BamHI and HindIII of pQE-30; also called WT HU; source: E. coli XL-1 Blue (pQE-30), purified (Ni-NTA, 2 M NaCl wash)
In the case of B4, the “stoichiometry N” value [2] is reported as 2 and 4 and 3 and 6.

B5: LysrHU-B (lysine-replaced HU-B, K83A and K86A) (natural protein, E. coli K-12)
chain: MNKSQLIDKIAAGADISKAAAGRALDAIIASVTESLKEGDDVALVGFGTFAVKERAARTGRNPQTGKEITIAAAKVPSFRAGAALADAVN
notes: source: E. coli XL-1 Blue (pQE-30), purified (Ni-NTA, 2 M NaCl wash)
For B5, the “stoichiometry N” value [1] was 2 and the “stoichiometry N” value [2] was 4.
